Laboratory results as given in the supplement of paper PMC10065799, “High-throughput profiling of sequence recognition by tyrosine kinases and SH2 domains using bacterial peptide display” (eLife, 2023).

Legend:
FGFR1 = FGFR1 (UniProt P11362); assay: phosphorylation enrichment, bacterial display (enrichment ratio); higher = better substrate or ligand; peptides without Tyr show the background
EPHB1 = EPHB1 (UniProt P54762); assay: as above
Fyn = Fyn (UniProt P06241); assay: as above
EPHB2 = EPHB2 (UniProt P29323); assay: as above
Sequence of EPHB2 (P29323 whole entry, looked up): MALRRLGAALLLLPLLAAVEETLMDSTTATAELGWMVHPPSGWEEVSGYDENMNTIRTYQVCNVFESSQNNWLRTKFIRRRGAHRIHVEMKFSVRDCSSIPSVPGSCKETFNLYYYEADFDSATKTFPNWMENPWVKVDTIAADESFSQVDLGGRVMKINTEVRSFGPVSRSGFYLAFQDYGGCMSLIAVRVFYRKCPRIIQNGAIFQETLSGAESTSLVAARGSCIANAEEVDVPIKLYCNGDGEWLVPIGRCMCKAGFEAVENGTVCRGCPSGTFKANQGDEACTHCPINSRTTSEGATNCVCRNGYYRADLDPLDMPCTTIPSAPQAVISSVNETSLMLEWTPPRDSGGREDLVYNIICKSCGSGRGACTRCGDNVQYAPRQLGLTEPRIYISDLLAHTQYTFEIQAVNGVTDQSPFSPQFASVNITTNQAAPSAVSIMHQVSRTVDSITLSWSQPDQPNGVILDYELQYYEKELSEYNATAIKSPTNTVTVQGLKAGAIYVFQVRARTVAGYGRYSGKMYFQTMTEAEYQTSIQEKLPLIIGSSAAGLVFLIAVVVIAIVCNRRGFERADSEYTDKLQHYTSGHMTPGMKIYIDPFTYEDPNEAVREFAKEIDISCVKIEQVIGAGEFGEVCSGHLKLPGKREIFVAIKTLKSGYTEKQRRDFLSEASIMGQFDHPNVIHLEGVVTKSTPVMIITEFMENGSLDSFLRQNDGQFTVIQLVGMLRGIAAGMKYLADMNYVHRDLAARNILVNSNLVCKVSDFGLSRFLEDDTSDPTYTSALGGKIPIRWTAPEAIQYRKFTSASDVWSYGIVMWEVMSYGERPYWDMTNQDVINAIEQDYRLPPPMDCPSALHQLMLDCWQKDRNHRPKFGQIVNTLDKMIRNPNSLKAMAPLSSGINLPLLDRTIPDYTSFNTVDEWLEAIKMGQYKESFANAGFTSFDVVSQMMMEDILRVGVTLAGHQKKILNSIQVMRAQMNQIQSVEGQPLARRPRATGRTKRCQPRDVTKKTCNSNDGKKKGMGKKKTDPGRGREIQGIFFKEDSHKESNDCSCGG

Hck = Hck (UniProt P08631); assay: as above
Sequence of Hck (P08631 whole entry, looked up): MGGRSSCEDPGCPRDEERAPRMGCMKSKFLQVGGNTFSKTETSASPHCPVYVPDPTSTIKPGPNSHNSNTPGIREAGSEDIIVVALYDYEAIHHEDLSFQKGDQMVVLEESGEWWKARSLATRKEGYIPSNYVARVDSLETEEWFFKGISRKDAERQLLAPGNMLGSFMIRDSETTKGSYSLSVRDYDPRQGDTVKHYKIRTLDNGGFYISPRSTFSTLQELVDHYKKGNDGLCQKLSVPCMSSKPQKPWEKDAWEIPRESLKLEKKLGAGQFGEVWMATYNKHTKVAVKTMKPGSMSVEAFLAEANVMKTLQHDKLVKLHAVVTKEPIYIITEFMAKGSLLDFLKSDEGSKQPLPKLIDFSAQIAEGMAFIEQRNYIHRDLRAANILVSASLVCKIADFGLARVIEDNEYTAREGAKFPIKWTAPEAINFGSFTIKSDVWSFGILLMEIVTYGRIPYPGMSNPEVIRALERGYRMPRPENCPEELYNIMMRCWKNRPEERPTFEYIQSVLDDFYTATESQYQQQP

AncSZ = assay: as above
MERTK = MERTK (UniProt Q12866); assay: as above
Fer (mouse) = assay: as above
FGFR3 = FGFR3 (UniProt P22607); assay: as above
Sequence of FGFR3 (P22607 whole entry, looked up): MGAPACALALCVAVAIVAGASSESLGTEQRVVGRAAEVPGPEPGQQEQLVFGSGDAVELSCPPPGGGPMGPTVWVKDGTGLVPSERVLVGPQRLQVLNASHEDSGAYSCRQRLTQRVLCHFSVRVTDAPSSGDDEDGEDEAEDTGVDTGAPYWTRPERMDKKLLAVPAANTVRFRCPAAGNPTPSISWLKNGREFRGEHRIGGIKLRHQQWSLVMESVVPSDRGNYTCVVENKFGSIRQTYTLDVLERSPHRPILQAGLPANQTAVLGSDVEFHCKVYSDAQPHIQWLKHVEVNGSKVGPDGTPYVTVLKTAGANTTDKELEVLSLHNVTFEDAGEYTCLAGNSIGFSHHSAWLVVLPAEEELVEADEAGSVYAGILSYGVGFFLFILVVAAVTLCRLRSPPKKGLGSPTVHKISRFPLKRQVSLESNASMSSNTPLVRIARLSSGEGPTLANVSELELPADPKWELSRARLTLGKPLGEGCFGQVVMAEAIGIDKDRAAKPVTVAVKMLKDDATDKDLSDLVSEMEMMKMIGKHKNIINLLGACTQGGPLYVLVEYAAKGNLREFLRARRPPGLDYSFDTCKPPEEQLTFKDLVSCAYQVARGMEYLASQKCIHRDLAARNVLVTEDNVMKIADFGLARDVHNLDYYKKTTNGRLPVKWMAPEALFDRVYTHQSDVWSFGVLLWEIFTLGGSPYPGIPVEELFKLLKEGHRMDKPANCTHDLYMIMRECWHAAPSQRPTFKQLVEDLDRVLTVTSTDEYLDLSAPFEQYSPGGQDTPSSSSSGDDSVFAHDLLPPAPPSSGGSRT

Fes = Fes (UniProt P07332); assay: as above
Sequence of Fes (P07332 whole entry, looked up): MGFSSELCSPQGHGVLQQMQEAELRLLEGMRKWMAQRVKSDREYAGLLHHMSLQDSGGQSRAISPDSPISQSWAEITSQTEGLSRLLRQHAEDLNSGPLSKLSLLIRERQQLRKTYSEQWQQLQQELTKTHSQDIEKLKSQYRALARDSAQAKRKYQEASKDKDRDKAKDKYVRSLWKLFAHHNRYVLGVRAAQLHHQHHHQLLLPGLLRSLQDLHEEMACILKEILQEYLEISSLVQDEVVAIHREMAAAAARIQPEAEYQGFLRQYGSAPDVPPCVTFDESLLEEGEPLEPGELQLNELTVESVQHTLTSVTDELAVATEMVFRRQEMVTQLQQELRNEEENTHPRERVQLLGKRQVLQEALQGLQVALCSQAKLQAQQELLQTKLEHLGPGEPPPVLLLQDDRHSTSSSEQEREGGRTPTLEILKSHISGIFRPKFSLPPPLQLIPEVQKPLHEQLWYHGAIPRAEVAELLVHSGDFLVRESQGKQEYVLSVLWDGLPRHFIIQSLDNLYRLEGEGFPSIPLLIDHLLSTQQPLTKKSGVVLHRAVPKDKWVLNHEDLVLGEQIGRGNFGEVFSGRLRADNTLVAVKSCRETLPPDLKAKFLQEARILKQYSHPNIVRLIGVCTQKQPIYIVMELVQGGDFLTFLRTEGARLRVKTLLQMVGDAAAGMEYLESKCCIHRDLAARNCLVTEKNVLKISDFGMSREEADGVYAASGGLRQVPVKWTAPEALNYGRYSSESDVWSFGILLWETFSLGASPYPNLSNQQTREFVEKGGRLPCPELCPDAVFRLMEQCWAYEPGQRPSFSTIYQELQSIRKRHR

Jak2 = Jak2 (UniProt O60674); assay: as above
Sequence of Jak2 (O60674 whole entry, looked up): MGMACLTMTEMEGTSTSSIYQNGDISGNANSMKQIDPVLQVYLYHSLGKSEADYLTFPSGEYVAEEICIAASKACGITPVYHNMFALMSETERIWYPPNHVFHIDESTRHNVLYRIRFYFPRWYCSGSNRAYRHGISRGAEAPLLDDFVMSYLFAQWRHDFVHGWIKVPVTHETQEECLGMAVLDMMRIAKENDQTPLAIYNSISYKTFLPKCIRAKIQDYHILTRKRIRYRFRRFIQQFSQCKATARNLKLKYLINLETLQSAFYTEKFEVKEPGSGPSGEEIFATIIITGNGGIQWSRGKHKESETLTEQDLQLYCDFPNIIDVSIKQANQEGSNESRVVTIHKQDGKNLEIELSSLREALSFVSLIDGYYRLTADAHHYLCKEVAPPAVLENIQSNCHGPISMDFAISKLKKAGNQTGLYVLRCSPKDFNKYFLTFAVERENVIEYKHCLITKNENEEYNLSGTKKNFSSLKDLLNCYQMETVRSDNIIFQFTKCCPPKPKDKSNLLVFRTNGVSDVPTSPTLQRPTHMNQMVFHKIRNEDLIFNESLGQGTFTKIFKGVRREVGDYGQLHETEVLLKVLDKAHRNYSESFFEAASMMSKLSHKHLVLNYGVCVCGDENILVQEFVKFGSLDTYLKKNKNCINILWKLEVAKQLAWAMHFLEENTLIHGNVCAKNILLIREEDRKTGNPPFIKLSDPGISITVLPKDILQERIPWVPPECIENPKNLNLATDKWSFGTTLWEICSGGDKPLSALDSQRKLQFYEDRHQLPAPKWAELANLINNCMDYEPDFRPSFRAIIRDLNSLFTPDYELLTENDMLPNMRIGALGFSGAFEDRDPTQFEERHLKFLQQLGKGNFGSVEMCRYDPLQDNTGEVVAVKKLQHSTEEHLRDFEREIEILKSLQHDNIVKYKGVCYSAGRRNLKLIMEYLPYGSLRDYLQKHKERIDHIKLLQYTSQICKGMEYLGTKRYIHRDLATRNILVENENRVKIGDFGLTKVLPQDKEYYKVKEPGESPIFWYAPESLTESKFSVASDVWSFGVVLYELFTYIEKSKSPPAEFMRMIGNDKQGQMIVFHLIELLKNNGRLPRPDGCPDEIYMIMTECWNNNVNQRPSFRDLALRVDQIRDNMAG

c-Abl (mouse) = assay: as above
c-Src = assay: as above
Grb2 SH2 = Grb2 SH2 (UniProt P62993); assay: SH2 binding enrichment of the phosphorylated peptide, bacterial display (enrichment ratio); higher = better substrate or ligand; peptides without Tyr show the background
Sequence of Grb2 SH2 (P62993 whole entry, looked up): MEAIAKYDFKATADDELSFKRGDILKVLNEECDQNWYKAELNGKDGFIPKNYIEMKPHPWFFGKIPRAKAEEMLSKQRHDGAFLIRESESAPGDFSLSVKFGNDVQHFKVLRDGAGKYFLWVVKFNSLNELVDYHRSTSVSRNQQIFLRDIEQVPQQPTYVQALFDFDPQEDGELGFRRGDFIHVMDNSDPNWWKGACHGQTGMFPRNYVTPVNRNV

c-Src SH2 = assay: as above
SHP2-C SH2 = assay: as above
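For SH2 binding enrichment of the phosphorylated peptide, bacterial display in this document: peptide library displayed on the E. coli surface as eCPX fusions, selected cells deep-sequenced, score is each peptide's frequency after selection divided by its frequency in the input.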
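For phosphorylation enrichment, bacterial display in this document: 11-residue human phosphosite peptides and single-mutation variants displayed on the E. coli surface, counted by deep sequencing, each peptide's frequency after selection divided by its frequency in the unselected input library; frequency after pTyr selection over input frequency; kinase dosed for 20-30% of maximal phosphorylation in three min.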

Row | Sequence | phosphorylation enrichment (FGFR1) | phosphorylation enrichment (EPHB1) | phosphorylation enrichment (Fyn) | phosphorylation enrichment (EPHB2) | phosphorylation enrichment (Hck) | phosphorylation enrichment (AncSZ) | phosphorylation enrichment (MERTK) | phosphorylation enrichment (Fer (mouse)) | phosphorylation enrichment (FGFR3) | phosphorylation enrichment (Fes) | phosphorylation enrichment (Jak2) | phosphorylation enrichment (c-Abl (mouse)) | phosphorylation enrichment (c-Src) | SH2 binding enrichment (Grb2 SH2) | SH2 binding enrichment (c-Src SH2) | SH2 binding enrichment (SHP2-C SH2)
1 | SECCKYKTDNP [OSMR_Y689_I691T] | 0.51 | 0.472 | 0.375 | 0.413 | 0.452 | 0.66 | 0.492 | 0.387 | 0.655 | 0.752 | 0.725 | 0.587 | 0.443 | 0.852 | 0.48 | 0.901
2 | EGLRRYLENGK [HLA-A_Y195_W191G] | 0.315 | 0.346 | 0.397 | 0.323 | 0.398 | 0.463 | 0.52 | 0.291 | 0.427 | 0.473 | 0.6 | 0.419 | 0.336 | 0.584 | 0.405 | 0.615
3 | ACEVLYNIVFM [NCF2_Y125_A128V] | 1.8 | 1.17 | 1.55 | 1.16 | 2.95 | 2.4 | 3.19 | 8.66 | 2.03 | 1.93 | 1.59 | 1.84 | 2.18 | 0.798 | 0.403 | 0.733
4 | YNDSAYNQQLI [ZPLD1_Y198_T197A] | 0.499 | 0.455 | 0.49 | 0.527 | 0.48 | 0.987 | 0.388 | 0.46 | 0.68 | 0.93 | 0.696 | 0.634 | 0.418 | 0.833 | 0.388 | 0.552
5 | GVPLGYPIKAP [ELN_Y206] | 0.462 | 0.323 | 0.384 | 0.388 | 0.388 | 0.563 | 0.419 | 0.45 | 0.399 | 0.573 | 0.534 | 0.485 | 0.427 | 0.716 | 0.573 | 0.666
6 | FKGKKYKPLDL [RPL35_Y78_YF] | 0.376 | 0.421 | 0.467 | 0.361 | 0.48 | 0.577 | 0.337 | 0.481 | 0.413 | 0.571 | 0.486 | 0.544 | 0.533 | 0.849 | 0.479 | 0.571
7 | DTKDDYNALSV [IL17RB_Y457] | 0.544 | 0.495 | 0.599 | 0.625 | 0.546 | 1.08 | 0.426 | 0.483 | 0.718 | 1.07 | 0.916 | 0.679 | 0.443 | 0.869 | 0.498 | 0.668
8 | LFLACYCIGGG [UBD_Y161] | 0.764 | 0.803 | 0.72 | 1.12 | 0.562 | 1.22 | 0.483 | 0.657 | 1.29 | 2.71 | 1.38 | 0.908 | 0.545 | 1.02 | 0.876 | 1.3
9 | KKGMIYGGGGG [PSME1_Y249_T244K] | 0.407 | 0.3 | 0.388 | 0.363 | 0.466 | 0.467 | 0.381 | 0.365 | 0.359 | 0.495 | 0.487 | 0.447 | 0.442 | 0.766 | 0.666 | 0.632
10 | QEGPEYWDQET [HLA-A_Y83] | 0.816 | 0.809 | 0.739 | 0.533 | 0.73 | 1.82 | 0.66 | 0.546 | 1.16 | 1.79 | 1.94 | 0.907 | 0.825 | 0.819 | 0.588 | 0.354
11 | RVQKRYILDNV [RCN1_Y115_F117L] | 0.326 | 0.176 | 0.372 | 0.234 | 0.366 | 0.494 | 0.367 | 0.337 | 0.327 | 0.463 | 0.487 | 0.384 | 0.409 | 0.804 | 0.454 | 0.553
12 | ATARPYSPYII [LRP5_Y1528_R1529S] | 0.351 | 0.473 | 0.934 | 0.192 | 0.456 | 0.646 | 0.375 | 6.92 | 0.727 | 0.731 | 0.668 | 0.544 | 1.02 | 0.838 | 0.619 | 0.764
13 | SSVAGYACLAY [MVD_Y131_A128V] | 0.495 | 0.564 | 0.466 | 0.582 | 0.538 | 0.898 | 0.463 | 0.587 | 0.701 | 0.994 | 0.852 | 0.768 | 0.554 | 0.777 | 2.24 | 3
14 | VNKIFYPDFIV [LIG3_Y768_YF] | 0.49 | 0.465 | 0.464 | 0.928 | 0.529 | 1 | 0.518 | 0.5 | 0.584 | 1.08 | 0.811 | 0.612 | 0.432 | 1.14 | 0.498 | 0.919
15 | MPLDQYSPSFP [FGFR1_Y776] | 0.631 | 0.399 | 0.496 | 0.617 | 0.6 | 0.857 | 0.595 | 0.654 | 0.79 | 0.941 | 0.917 | 0.706 | 0.552 | 1.08 | 0.518 | 0.803
16 | AAVDTVCRHNY [HLA-DRB1_Y107_Y107V] | 0.612 | 0.463 | 0.494 | 0.429 | 0.64 | 0.645 | 0.511 | 0.417 | 0.673 | 0.842 | 0.739 | 0.795 | 0.473 | 0.788 | 0.534 | 0.636
17 | RRIHCYRGHLW [VHL_Y112_S111C] | 0.475 | 0.49 | 0.465 | 0.524 | 0.483 | 0.626 | 0.556 | 0.66 | 0.56 | 1.17 | 0.702 | 0.527 | 0.62 | 0.722 | 0.583 | 0.568

Row | Sequence | phosphorylation enrichment (FGFR1) | phosphorylation enrichment (EPHB1) | phosphorylation enrichment (Fyn) | phosphorylation enrichment (EPHB2) | phosphorylation enrichment (Hck) | phosphorylation enrichment (AncSZ) | phosphorylation enrichment (MERTK) | phosphorylation enrichment (Fer (mouse)) | phosphorylation enrichment (FGFR3) | phosphorylation enrichment (Fes) | phosphorylation enrichment (Jak2) | phosphorylation enrichment (c-Abl (mouse)) | phosphorylation enrichment (c-Src) | SH2 binding enrichment (Grb2 SH2) | SH2 binding enrichment (c-Src SH2) | SH2 binding enrichment (SHP2-C SH2)
18 | IAAEFYDNLPH [DEGS1_Y284_YF] | 0.66 | 0.531 | 0.72 | 0.68 | 3.88 | 0.894 | 0.687 | 1.12 | 0.682 | 0.79 | 0.559 | 0.535 | 0.723 | 0.774 | 0.77 | 0.697
19 | WIPIQCPIISE [NOG_Y222_Y222C] | 0.54 | 0.818 | 0.551 | 0.591 | 0.563 | 1.31 | 0.373 | 0.54 | 1.04 | 1.41 | 1.12 | 0.836 | 0.433 | 0.871 | 0.513 | 0.885
20 | REGAKYVSHDA [ASS1_Y113_G117D] | 0.648 | 0.508 | 0.655 | 0.423 | 0.553 | 1.4 | 0.833 | 0.767 | 0.739 | 0.988 | 0.886 | 0.75 | 0.565 | 0.678 | 0.389 | 0.452
21 | QRALLYEDALY [UNC13D_Y56] | 0.861 | 12.3 | 7.7 | 12.3 | 7.73 | 2.17 | 5.12 | 17.1 | 0.975 | 2.05 | 1.08 | 1.04 | 6.09 | 0.825 | 0.843 | 0.542
22 | RRGTRYMFSRP [RPL21_Y13] | 0.859 | 0.782 | 0.829 | 0.768 | 0.853 | 0.952 | 0.837 | 0.887 | 0.554 | 0.594 | 0.625 | 0.971 | 0.922 | 0.599 | 0.483 | 0.746
23 | SDGKRYRVPSD [HHIPL2_Y395_H391D] | 0.377 | 0.357 | 0.338 | 0.303 | 0.346 | 0.555 | 0.409 | 0.408 | 0.426 | 0.522 | 0.771 | 0.44 | 0.384 | 0.781 | 0.57 | 0.608
24 | NKVFTYIFIME [SCN4A_Y1074_D1069N] | 0.507 | 0.685 | 0.46 | 0.613 | 0.509 | 1.28 | 0.419 | 0.589 | 0.857 | 1.71 | 1.46 | 0.99 | 0.487 | 0.745 | 0.342 | 0.765
25 | QTEAQYRFIYM [PTPN11_Y511] | 1.65 | 0.835 | 0.634 | 0.782 | 0.542 | 1.77 | 0.667 | 1.09 | 1.54 | 1.29 | 1.56 | 1.5 | 1.23 | 0.563 | 0.244 | 0.744
26 | HTLMKYTDGDQ [PUS7L_Y94_I92M] | 0.813 | 1.17 | 0.595 | 0.634 | 0.682 | 1.34 | 0.463 | 0.666 | 0.897 | 1.48 | 1.26 | 1.08 | 0.788 | 0.794 | 0.563 | 0.757
27 | EILLSYPRTGY [TGM1_Y365_L366P] | 0.445 | 0.397 | 0.418 | 0.456 | 0.371 | 0.626 | 0.379 | 0.49 | 0.47 | 0.789 | 0.867 | 0.658 | 0.448 | 0.929 | 0.58 | 0.699
28 | SGSIHYSRVPR [GLB1_Y57] | 0.772 | 0.542 | 0.605 | 0.436 | 0.529 | 0.629 | 0.64 | 0.535 | 0.578 | 0.763 | 0.772 | 0.716 | 0.677 | 0.734 | 0.861 | 0.824
29 | VYSTDCYRVGG [NTRK2_Y706_Y706C] | 0.787 | 2.13 | 2.56 | 1.01 | 1.38 | 1.07 | 7.43 | 0.824 | 0.769 | 1.16 | 0.972 | 0.808 | 2.23 | 0.903 | 0.601 | 0.538
30 | GHEFIYVDRMQ [PDGFRB_Y581_P584R_YF] | 0.555 | 0.47 | 1.42 | 0.685 | 1.11 | 0.777 | 0.479 | 0.382 | 0.624 | 0.836 | 0.541 | 0.651 | 2.02 | 0.92 | 0.399 | 0.741
31 | DLSEVYKPRRK [CCDC93_Y176] | 0.352 | 0.513 | 0.579 | 0.454 | 0.407 | 0.761 | 0.634 | 0.521 | 0.575 | 0.623 | 0.574 | 0.59 | 0.573 | 0.414 | 0.315 | 0.481
32 | LAGRYYALRSM [CKB_Y174_K177R] | 0.751 | 0.701 | 0.524 | 0.688 | 0.708 | 0.807 | 3.63 | 0.5 | 0.763 | 0.79 | 1.66 | 0.684 | 0.581 | 1.38 | 1.73 | 2.86
33 | WLQKLYNNFVN [MYO5C_Y526] | 0.459 | 0.528 | 0.472 | 0.57 | 0.655 | 1.25 | 0.429 | 0.483 | 0.774 | 1.4 | 1 | 0.874 | 0.501 | 1.31 | 1.28 | 1.18
